This note sets out measurements from US5354664.

Experiment [1] concerns the target bovine fibrinogen (bovine).
The target in a further experiment is human fibrinogen (human) (UniProt P02671).
Experiment [2] concerns the target bovine thrombin (bovine) (UniProt P00735).
Experiment [3] shares this target. The source holds these as a separate data set.
Experiment [4] has the same target. This is another data set of the same source.

human urine derived thrombin-binding substance obtained using a recombinant DNA technique (r-UTM) (receptor), sequence (chain): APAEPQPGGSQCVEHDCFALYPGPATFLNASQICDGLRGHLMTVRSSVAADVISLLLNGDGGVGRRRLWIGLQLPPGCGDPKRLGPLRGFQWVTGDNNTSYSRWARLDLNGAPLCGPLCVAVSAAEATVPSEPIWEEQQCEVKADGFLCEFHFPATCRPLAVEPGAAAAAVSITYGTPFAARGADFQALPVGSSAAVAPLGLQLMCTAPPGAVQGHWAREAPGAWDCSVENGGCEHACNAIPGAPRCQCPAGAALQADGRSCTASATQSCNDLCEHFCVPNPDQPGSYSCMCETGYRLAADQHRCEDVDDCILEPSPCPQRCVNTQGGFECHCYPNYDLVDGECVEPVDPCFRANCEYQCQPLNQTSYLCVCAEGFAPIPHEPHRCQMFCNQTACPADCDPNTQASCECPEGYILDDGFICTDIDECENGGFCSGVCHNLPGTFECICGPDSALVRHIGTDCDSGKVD

In turn, “bovine thrombin (from UniProt P00735) (enzyme)” displayed a Coagulation time (sec), control in experiment [1] of 28.1 s. Moreover, the clotting time, control, ATIII (-) with human fibrinogen (human) came out at 43.3 s.
Turning to “human antithrombin III (from UniProt P01008)”, the clotting time, control, ATIII (+) in the experiment with bovine thrombin (bovine) [2] was 49.5 s.
Substance “human urine derived thrombin-binding substance obtained using a recombinant DNA technique (r-UTM) (receptor)” returned an IC50 (time required for the coagulation) with bovine thrombin (bovine) [3] of 80 nM. Besides, the Coagulation time in the experiment with bovine thrombin (bovine) [4] turned out to be 29.6 s. Besides, in the experiment with bovine thrombin (bovine) [2], the clotting time, ATIII (+) (human antithrombin III 250 µg/ml) amounted to 80.8 s and the clotting time, ATIII (-) was 61.8 s.
